Reference: patent US20210070882A1 (Hoffmann-La Roche, published 2021)
Residue numbers refer to the chain shown, from its start. Several values for one entry are separate records, joined by “and”; a condition that tells them apart may be missing. Identical values can stand only once. Like-named read-outs stand apart in the source and are kept apart here.

B1: Molecule E: 1+1 IgG CrossFab, inverted, without charge modifications (CH1/CL exchange in CD3 binder, parental murine CD19 binder 8B8) (bispecific antibody)
chain 1: not shown
chain 2: QAVVTQEPSLTVSPGGTVTLTCGSSTGAVTTSNYANWVQEKPGQAFRGLIGGTNKRAPGTPARFSGSLLGGKAALTLSGAQPEDEAEYYCALWYSNLWVFGGGTKLTVLSSASTKGPSVFPLAPSSKSTSGGTAALGCLVKDYFPEPVTVSWNSGALTSGVHTFPAVLQSSGLYSLSSVVTVPSSSLGTQTYICNVNHKPSNTKVDKKVEPKSC
chain 3: DAVMTQTPLSLPVSLGDQASISCRSSQSLENSNGNTYLNWYLQKPGQSPQLLIYRVSKRFSGVLDRFSGSGSGTDFTLKISRVEAEDLGVYFCLQLTHVPYTFGGGTKLEIKRTVAAPSVFIFPPSDEQLKSGTASVVCLLNNFYPREAKVQWKVDNALQSGNSQESVTEQDSKDSTYSLSSTLTLSKADYEKHKVYACEVTHQGLSSPVTKSFNRGEC
chain 4: DKTHTCPPCPAPEAAGGPSVFLFPPKPKDTLMISRTPEVTCVVVDVSHEDPEVKFNWYVDGVEVHNAKTKPREEQYNSTYRVVSVLTVLHQDWLNGKEYKCKVSNKALGAPIEKTISKAKGQPREPQVCTLPPSRDELTKNQVSLSCAVKGFYPSDIAVEWESNGQPENNYKTTPPVLDSDGSFFLVSKLTVDKSRWQQGNVFSCSVMHEALHNHYTQKSLSLSP
B2: Molecule F: 1+1 IgG CrossMab with charge modifications (VH/VL exchange in CD3 binder, charge modification in CD19 binder, parental murine CD19 binder 8B8) (bispecific antibody)
chain 1: EVQLQQSGPELVKPGASVKMACKASGYTFTDYIMHWVKQKTGQGLEWIGYINPYNDGSKYTEKFNGKATLTSDKSSITAYMELSSLTSEDSAVYYCARGTYYYGSALFDYWGQGTTLTVSSASTKGPSVFPLAPSSKSTSGGTAALGCLVEDYFPEPVTVSWNSGALTSGVHTFPAVLQSSGLYSLSSVVTVPSSSLGTQTYICNVNHKPSNTKVDEKVEPKSCDKTHTCPPCPAPEAAGGPSVFLFPPKPKDTLMISRTPEVTCVVVDVSHEDPEVKFNWYVDGVEVHNAKTKPREEQYNSTYRVVSVLTVLHQDWLNGKEYKCKVSNKALGAPIEKTISKAKGQPREPQVCTLPPSRDELTKNQVSLSCAVKGFYPSDIAVEWESNGQPENNYKTTPPVLDSDGSFFLVSKLTVDKSRWQQGNVFSCSVMHEALHNHYTQKSLSLSP
chain 2: EVQLLESGGGLVQPGGSLRLSCAASGFTFSTYAMNWVRQAPGKGLEWVSRIRSKYNNYATYYADSVKGRFTISRDDSKNTLYLQMNSLRAEDTAVYYCVRHGNFGNSYVSWFAYWGQGTLVTVSSASVAAPSVFIFPPSDEQLKSGTASVVCLLNNFYPREAKVQWKVDNALQSGNSQESVTEQDSKDSTYSLSSTLTLSKADYEKHKVYACEVTHQGLSSPVTKSFNRGEC
chain 3: B1 chain 3 with E128R, Q129K
chain 4: not shown
B3: Molecule A: 2+1 IgG CrossFab, inverted, with charge modifications (VH/VL exchange in CD3 binder, charge modification in CD19 binder, parental murine CD19 … (bispecific antibody)
chain 1: B2 chain 1
chain 2: not shown
chain 3: B2 chain 2
chain 4: B1 chain 3 with E128R, Q129K
B4: CD19_IgG_10C1 (antibody, V domains shown)
VH: EVQLQQSGPELVKPGASVKMSCKASGYTFTSYVMHWVKQKPGQGLEWIGYINPYNDGTKFNEKFKGKATLTSDKSSSTAYMELSSLTSEDSAVYYCTRGVYYYGSSQGDYWGQGTTLTVSS
VL: DAVMTQTPLSLPVSLGDQASISCRSSQSLENSNGNTYLNWYLQKPGQSPQLLIYRISNRFSGVPDRFNGSGSGTDFTLKISRVEAEDLGVYFCLQVTHVPWTFGGGTKLEIK
notes: also called CD19 IgG (clone 10C1); 10C1 as IgG
B5: Molecule G: 2+1 IgG CrossFab, inverted, with charge modifications (VH/VL exchange in CD19 binder, charge modification in CD3 binder, parental murine CD19 … (bispecific antibody)
chain 1: DAVMTQTPLSLPVSLGDQASISCRSSQSLENSNGNTYLNWYLQKPGQSPQLLIYRVSKRFSGVLDRFSGSGSGTDFTLKISRVEAEDLGVYFCLQLTHVPYTFGGGTKLEIKSSASTKGPSVFPLAPSSKSTSGGTAALGCLVKDYFPEPVTVSWNSGALTSGVHTFPAVLQSSGLYSLSSVVTVPSSSLGTQTYICNVNHKPSNTKVDKKVEPKSCDKTHTCPPCPAPEAAGGPSVFLFPPKPKDTLMISRTPEVTCVVVDVSHEDPEVKFNWYVDGVEVHNAKTKPREEQYNSTYRVVSVLTVLHQDWLNGKEYKCKVSNKALGAPIEKTISKAKGQPREPQVCTLPPSRDELTKNQVSLSCAVKGFYPSDIAVEWESNGQPENNYKTTPPVLDSDGSFFLVSKLTVDKSRWQQGNVFSCSVMHEALHNHYTQKSLSLSP
chain 2: not shown
chain 3: EVQLQQSGPELVKPGASVKMACKASGYTFTDYIMHWVKQKTGQGLEWIGYINPYNDGSKYTEKFNGKATLTSDKSSITAYMELSSLTSEDSAVYYCARGTYYYGSALFDYWGQGTTLTVSSASVAAPSVFIFPPSDEQLKSGTASVVCLLNNFYPREAKVQWKVDNALQSGNSQESVTEQDSKDSTYSLSSTLTLSKADYEKHKVYACEVTHQGLSSPVTKSFNRGEC
chain 4: QAVVTQEPSLTVSPGGTVTLTCGSSTGAVTTSNYANWVQEKPGQAFRGLIGGTNKRAPGTPARFSGSLLGGKAALTLSGAQPEDEAEYYCALWYSNLWVFGGGTKLTVLGQPKAAPSVTLFPPSSKKLQANKATLVCLISDFYPGAVTVAWKADSSPVKAGVETTTPSKQSNNKYAASSYLSLTPEQWKSHRSYSCQVTHEGSTVEKTVAPTECS

Key:
human CD19 [1] = target: T1, human CD19 (human, UniProt P15391 20-556); assay: cell-based or functional assay
T1 sequence (looked up): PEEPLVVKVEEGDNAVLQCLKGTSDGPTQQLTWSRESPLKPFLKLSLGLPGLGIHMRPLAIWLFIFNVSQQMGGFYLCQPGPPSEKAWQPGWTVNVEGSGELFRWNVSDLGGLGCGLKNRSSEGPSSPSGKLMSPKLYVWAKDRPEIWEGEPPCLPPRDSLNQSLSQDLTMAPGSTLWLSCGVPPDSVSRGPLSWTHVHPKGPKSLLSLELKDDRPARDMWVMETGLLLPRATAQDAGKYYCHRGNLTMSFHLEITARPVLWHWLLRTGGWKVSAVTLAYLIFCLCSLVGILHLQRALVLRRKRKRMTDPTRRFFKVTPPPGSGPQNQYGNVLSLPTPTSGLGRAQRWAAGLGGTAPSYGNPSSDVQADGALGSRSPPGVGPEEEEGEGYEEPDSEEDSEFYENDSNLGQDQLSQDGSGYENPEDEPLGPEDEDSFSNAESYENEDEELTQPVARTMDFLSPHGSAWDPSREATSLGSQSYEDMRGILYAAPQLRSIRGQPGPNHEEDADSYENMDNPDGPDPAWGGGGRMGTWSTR

human CD19 [2] = target: T1, human CD19; assay: cell-based or functional assay; remark: listed apart in the source
human CD19 [3] = target: T1, human CD19; assay: cell-based or functional assay; remark: listed apart in the source
human CD19 [4] = target: T1, human CD19; assay: cell-based or functional assay; remark: listed apart in the source
human CD19 [5] = target: T1, human CD19; assay: flow cytometry on CD19-expressing Raji cells
Protocol: The binding of CD19 IgGs and CD19 TCBs to human CD19- and CD3-expressing target cells was tested using CD19-expressing Burkitt's lymphoma cells (Raji) and CD3-expressing immortalized T lymphocyte line (Jurkat). Briefly, cells were harvested, counted, checked for viability and resuspended at 2×10⁶ cells/ml in FACS buffer (100 μl PBS 0.1% BSA). 100 μl of cell suspension (containing 0.2×10⁶ cells) were incubated in round-bottom 96-well plate for 30 min at 4° C. with increasing concentrations of the CD19 IgGs and CD19 TCBs (10 pM-200 nM), washed twice with cold PBS 0.1% BSA, re-incubated for further 30 min at 4° C. with the PE-conjugated AffiniPure F(ab′)2 Fragment goat anti-human IgG Fcg Fragment Specific secondary antibody (Jackson Immuno Research Lab PE #109-116-170), washed twice with cold PBS 0.1% BSA and immediately analyzed by FACS using a FACS Cantoll (Software FACS Diva) by gating live, DAPI-negative, cells.

Row | Binder | Tumor cell lysis Z-138 cells (21 h), EC50 (human CD19 [1]) | Tumor cell lysis Z-138 cells (21 h), EC50 (pM) (human CD19 [1]) | T cell activation EC50 upon lysis of Z-138 cells, CD25/CD4 (human CD19 [2]) | T cell activation EC50 upon lysis of Z-138 cells, CD25/CD8 (human CD19 [2]) | T cell activation EC50 upon lysis of Z-138 cells, CD69/CD4 (human CD19 [2]) | T cell activation EC50 upon lysis of Z-138 cells, CD69/CD8 (human CD19 [2]) | T cell activation EC50 upon lysis of Z-138 cells, CD107/CD4 (human CD19 [2]) | T cell activation EC50 upon lysis of Z-138 cells, CD107/CD8 (human CD19 [2]) | Tumor cell lysis Z-138 cells (21 h), EC50 (human CD19 [3]) | Tumor cell lysis Z-138 cells (21 h), EC50 (pM) (human CD19 [3]) | T cell activation EC50 upon lysis of Z-138 cells, CD25/CD4 (human CD19 [4]) | T cell activation EC50 upon lysis of Z-138 cells, CD25/CD8 (human CD19 [4]) | T cell activation EC50 upon lysis of Z-138 cells, CD69/CD4 (human CD19 [4]) | T cell activation EC50 upon lysis of Z-138 cells, CD69/CD8 (human CD19 [4]) | T cell activation EC50 upon lysis of Z-138 cells, CD107/CD4 (human CD19 [4]) | T cell activation EC50 upon lysis of Z-138 cells, CD107/CD8 (human CD19 [4]) | EC50 (human CD19 [5])
1 | B1 | 0.62 ng/mL | 4.2 pM | 3.55 pM | 3.31 pM | 1.04 pM | 1.71 pM | 2.09 pM | 2.76 pM | – | – | – | – | – | – | – | – | –
2 | B2 | 7.85 ng/mL | 53.7 pM | 10 pM | 6.5 pM | 3.97 pM | 2.59 pM | 7.54 pM | 4.02 pM | – | – | – | – | – | – | – | – | –
3 | B3 | – | – | – | – | – | – | – | – | 0.92 ng/mL | ~4.7 pM | ~4.58 pM | 2.87 pM | 1.41 pM | 1.37 pM | 2.34 pM | 2 pM | –
4 | B4 | – | – | – | – | – | – | – | – | – | – | – | – | – | – | – | – | 5.2 nM and 0.763 µg/mL
5 | B5 | – | – | – | – | – | – | – | – | 0.57 ng/mL | 2.93 pM | 1.85 pM | 1.53 pM | ~0.75 pM | 0.7 pM | 1.14 pM | 1.13 pM | –
